# Measurements taken from US20200087373A1 (UNIVERSITY OF COPENHAGEN, published 2020).
# Ends that are not written are not given here. * marks the point of attachment. C18 diacid = O=C(O)CCCCCCCCCCCCCCCCC(=O)*; C16 diacid = O=C(O)CCCCCCCCCCCCCCC(=O)*; C14 diacid = O=C(O)CCCCCCCCCCCCC(=O)*; Palmitoyl = CCCCCCCCCCCCCCCC(=O)*; Myristoyl = CCCCCCCCCCCCCC(=O)*
# T1: human GIP receptor (human, UniProt P48546 22-466)
# T1 construct: whole, on cells; also called hGIPR
# T1 sequence (looked up): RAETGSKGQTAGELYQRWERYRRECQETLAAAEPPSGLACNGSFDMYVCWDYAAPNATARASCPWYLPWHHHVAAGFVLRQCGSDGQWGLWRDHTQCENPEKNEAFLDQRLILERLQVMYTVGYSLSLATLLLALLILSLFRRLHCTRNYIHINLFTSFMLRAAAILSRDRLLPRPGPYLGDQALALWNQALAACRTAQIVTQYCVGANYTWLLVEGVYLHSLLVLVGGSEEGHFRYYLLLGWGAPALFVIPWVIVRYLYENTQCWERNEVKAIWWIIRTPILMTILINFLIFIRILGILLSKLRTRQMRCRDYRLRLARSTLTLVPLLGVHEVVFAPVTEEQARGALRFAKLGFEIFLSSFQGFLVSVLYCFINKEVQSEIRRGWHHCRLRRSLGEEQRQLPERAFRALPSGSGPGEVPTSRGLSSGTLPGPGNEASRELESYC
# B1: AT135 [hGIP(5-30)NH2[K16R; K30R]-C16/5] (peptide)
# peptide: Palmitoyl-TFISDYSIAMDRIHQQDFVNWLLAQR-NH2
# SMILES: CCCCCCCCCCCCCCCC(=O)N[C@H](C(=O)N[C@@H](Cc1ccccc1)C(=O)N[C@H](C(=O)N[C@@H](CO)C(=O)N[C@@H](CC(=O)O)C(=O)N[C@@H](Cc1ccc(O)cc1)C(=O)N[C@@H](CO)C(=O)N[C@H](C(=O)N[C@@H](C)C(=O)N[C@@H](CCSC)C(=O)N[C@@H](CC(=O)O)C(=O)N[C@@H](CCCNC(=N)N)C(=O)N[C@H](C(=O)N[C@@H](Cc1c[nH]cn1)C(=O)N[C@@H](CCC(N)=O)C(=O)N[C@@H](CCC(N)=O)C(=O)N[C@@H](CC(=O)O)C(=O)N[C@@H](Cc1ccccc1)C(=O)N[C@H](C(=O)N[C@@H](CC(N)=O)C(=O)N[C@@H](Cc1c[nH]c2ccccc12)C(=O)N[C@@H](CC(C)C)C(=O)N[C@@H](CC(C)C)C(=O)N[C@@H](C)C(=O)N[C@@H](CCC(N)=O)C(=O)N[C@@H](CCCNC(=N)N)C(N)=O)C(C)C)[C@@H](C)CC)[C@@H](C)CC)[C@@H](C)CC)[C@@H](C)O
# B2: AT136 [hGIP(5-30)NH2-C14diacid/5] (peptide)
# peptide: {C14 diacid}-TFISDYSIAMDKIHQQDFVNWLLAQK-NH2
# SMILES: CC[C@H](C)[C@H](NC(=O)[C@H](CO)NC(=O)[C@H](Cc1ccc(O)cc1)NC(=O)[C@H](CC(=O)O)NC(=O)[C@H](CO)NC(=O)[C@@H](NC(=O)[C@H](Cc1ccccc1)NC(=O)[C@@H](NC(=O)CCCCCCCCCCCCC(=O)O)[C@@H](C)O)[C@@H](C)CC)C(=O)N[C@@H](C)C(=O)N[C@@H](CCSC)C(=O)N[C@@H](CC(=O)O)C(=O)N[C@@H](CCCCN)C(=O)N[C@H](C(=O)N[C@@H](Cc1c[nH]cn1)C(=O)N[C@@H](CCC(N)=O)C(=O)N[C@@H](CCC(N)=O)C(=O)N[C@@H](CC(=O)O)C(=O)N[C@@H](Cc1ccccc1)C(=O)N[C@H](C(=O)N[C@@H](CC(N)=O)C(=O)N[C@@H](Cc1c[nH]c2ccccc12)C(=O)N[C@@H](CC(C)C)C(=O)N[C@@H](CC(C)C)C(=O)N[C@@H](C)C(=O)N[C@@H](CCC(N)=O)C(=O)N[C@@H](CCCCN)C(N)=O)C(C)C)[C@@H](C)CC
# B3: AT137 [hGIP(5-30)NH2-C16diacid/5] (peptide)
# peptide: {C16 diacid}-TFISDYSIAMDKIHQQDFVNWLLAQK-NH2
# SMILES: CC[C@H](C)[C@H](NC(=O)[C@H](CO)NC(=O)[C@H](Cc1ccc(O)cc1)NC(=O)[C@H](CC(=O)O)NC(=O)[C@H](CO)NC(=O)[C@@H](NC(=O)[C@H](Cc1ccccc1)NC(=O)[C@@H](NC(=O)CCCCCCCCCCCCCCC(=O)O)[C@@H](C)O)[C@@H](C)CC)C(=O)N[C@@H](C)C(=O)N[C@@H](CCSC)C(=O)N[C@@H](CC(=O)O)C(=O)N[C@@H](CCCCN)C(=O)N[C@H](C(=O)N[C@@H](Cc1c[nH]cn1)C(=O)N[C@@H](CCC(N)=O)C(=O)N[C@@H](CCC(N)=O)C(=O)N[C@@H](CC(=O)O)C(=O)N[C@@H](Cc1ccccc1)C(=O)N[C@H](C(=O)N[C@@H](CC(N)=O)C(=O)N[C@@H](Cc1c[nH]c2ccccc12)C(=O)N[C@@H](CC(C)C)C(=O)N[C@@H](CC(C)C)C(=O)N[C@@H](C)C(=O)N[C@@H](CCC(N)=O)C(=O)N[C@@H](CCCCN)C(N)=O)C(C)C)[C@@H](C)CC
# B4: AT138 [hGIP(5-30)NH2-C18diacid/5] (peptide)
# peptide: {C18 diacid}-TFISDYSIAMDKIHQQDFVNWLLAQK-NH2
# SMILES: CC[C@H](C)[C@H](NC(=O)[C@H](CO)NC(=O)[C@H](Cc1ccc(O)cc1)NC(=O)[C@H](CC(=O)O)NC(=O)[C@H](CO)NC(=O)[C@@H](NC(=O)[C@H](Cc1ccccc1)NC(=O)[C@@H](NC(=O)CCCCCCCCCCCCCCCCC(=O)O)[C@@H](C)O)[C@@H](C)CC)C(=O)N[C@@H](C)C(=O)N[C@@H](CCSC)C(=O)N[C@@H](CC(=O)O)C(=O)N[C@@H](CCCCN)C(=O)N[C@H](C(=O)N[C@@H](Cc1c[nH]cn1)C(=O)N[C@@H](CCC(N)=O)C(=O)N[C@@H](CCC(N)=O)C(=O)N[C@@H](CC(=O)O)C(=O)N[C@@H](Cc1ccccc1)C(=O)N[C@H](C(=O)N[C@@H](CC(N)=O)C(=O)N[C@@H](Cc1c[nH]c2ccccc12)C(=O)N[C@@H](CC(C)C)C(=O)N[C@@H](CC(C)C)C(=O)N[C@@H](C)C(=O)N[C@@H](CCC(N)=O)C(=O)N[C@@H](CCCCN)C(N)=O)C(C)C)[C@@H](C)CC
# B5: AT139 [hGIP(5-30)NH2-C14diacid/16] (peptide)
# peptide: TFISDYSIAMDK(C14 diacid)IHQQDFVNWLLAQK-NH2
# modifications: N-terminus assumed
# SMILES: CC[C@H](C)[C@H](NC(=O)[C@H](CO)NC(=O)[C@H](Cc1ccc(O)cc1)NC(=O)[C@H](CC(=O)O)NC(=O)[C@H](CO)NC(=O)[C@@H](NC(=O)[C@H](Cc1ccccc1)NC(=O)[C@@H](N)[C@@H](C)O)[C@@H](C)CC)C(=O)N[C@@H](C)C(=O)N[C@@H](CCSC)C(=O)N[C@@H](CC(=O)O)C(=O)N[C@@H](CCCCNC(=O)CCCCCCCCCCCCC(=O)O)C(=O)N[C@H](C(=O)N[C@@H](Cc1c[nH]cn1)C(=O)N[C@@H](CCC(N)=O)C(=O)N[C@@H](CCC(N)=O)C(=O)N[C@@H](CC(=O)O)C(=O)N[C@@H](Cc1ccccc1)C(=O)N[C@H](C(=O)N[C@@H](CC(N)=O)C(=O)N[C@@H](Cc1c[nH]c2ccccc12)C(=O)N[C@@H](CC(C)C)C(=O)N[C@@H](CC(C)C)C(=O)N[C@@H](C)C(=O)N[C@@H](CCC(N)=O)C(=O)N[C@@H](CCCCN)C(N)=O)C(C)C)[C@@H](C)CC
# B6: AT140 [hGIP(5-30)NH2-C16diacid/16] (peptide)
# peptide: TFISDYSIAMDK(C16 diacid)IHQQDFVNWLLAQK-NH2
# modifications: N-terminus assumed
# SMILES: CC[C@H](C)[C@H](NC(=O)[C@H](CO)NC(=O)[C@H](Cc1ccc(O)cc1)NC(=O)[C@H](CC(=O)O)NC(=O)[C@H](CO)NC(=O)[C@@H](NC(=O)[C@H](Cc1ccccc1)NC(=O)[C@@H](N)[C@@H](C)O)[C@@H](C)CC)C(=O)N[C@@H](C)C(=O)N[C@@H](CCSC)C(=O)N[C@@H](CC(=O)O)C(=O)N[C@@H](CCCCNC(=O)CCCCCCCCCCCCCCC(=O)O)C(=O)N[C@H](C(=O)N[C@@H](Cc1c[nH]cn1)C(=O)N[C@@H](CCC(N)=O)C(=O)N[C@@H](CCC(N)=O)C(=O)N[C@@H](CC(=O)O)C(=O)N[C@@H](Cc1ccccc1)C(=O)N[C@H](C(=O)N[C@@H](CC(N)=O)C(=O)N[C@@H](Cc1c[nH]c2ccccc12)C(=O)N[C@@H](CC(C)C)C(=O)N[C@@H](CC(C)C)C(=O)N[C@@H](C)C(=O)N[C@@H](CCC(N)=O)C(=O)N[C@@H](CCCCN)C(N)=O)C(C)C)[C@@H](C)CC
# B7: AT141 [hGIP(5-30)NH2-C18diacid/16] (peptide)
# peptide: TFISDYSIAMDK(C18 diacid)IHQQDFVNWLLAQK-NH2
# modifications: N-terminus assumed
# SMILES: CC[C@H](C)[C@H](NC(=O)[C@H](CO)NC(=O)[C@H](Cc1ccc(O)cc1)NC(=O)[C@H](CC(=O)O)NC(=O)[C@H](CO)NC(=O)[C@@H](NC(=O)[C@H](Cc1ccccc1)NC(=O)[C@@H](N)[C@@H](C)O)[C@@H](C)CC)C(=O)N[C@@H](C)C(=O)N[C@@H](CCSC)C(=O)N[C@@H](CC(=O)O)C(=O)N[C@@H](CCCCNC(=O)CCCCCCCCCCCCCCCCC(=O)O)C(=O)N[C@H](C(=O)N[C@@H](Cc1c[nH]cn1)C(=O)N[C@@H](CCC(N)=O)C(=O)N[C@@H](CCC(N)=O)C(=O)N[C@@H](CC(=O)O)C(=O)N[C@@H](Cc1ccccc1)C(=O)N[C@H](C(=O)N[C@@H](CC(N)=O)C(=O)N[C@@H](Cc1c[nH]c2ccccc12)C(=O)N[C@@H](CC(C)C)C(=O)N[C@@H](CC(C)C)C(=O)N[C@@H](C)C(=O)N[C@@H](CCC(N)=O)C(=O)N[C@@H](CCCCN)C(N)=O)C(C)C)[C@@H](C)CC
# Key:
# human GIP receptor [1] = target: T1, human GIP receptor; experiment: 125I-hGIP competition binding, COS-7/hGIPR, 2% HSA;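 note: nonspecific binding defined as radioligand binding to untransfected cells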
# Description: (§1) After incubation, the cells were washed twice in ice-cold binding buffer (+/−2% HSA) and lysed using 200 mM NaOH with 1% SDS for 30 min. Nonspecific binding was determined as the binding of radioactive ligand to untransfected cells.
# human GIP receptor [2] = target: T1, human GIP receptor; experiment: 125I-hGIP competition binding, COS-7 cells expressing hGIPR;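 note: nonspecific binding taken as radioligand bound by untransfected cells, binding buffer with or without 2% HSA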
# Description: as §1
# human GIP receptor [3] = target: T1, human GIP receptor; experiment: 125I-hGIP competition binding, COS-7/hGIPR, 0.1% casein;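 note: nonspecific binding defined as radioligand binding measured on untransfected cells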
# Description: as §1
# human GIP receptor [4] = target: T1, human GIP receptor; experiment: IC50 with 2% HSA over IC50 with 0.1% casein, 125I-hGIP competition, COS-7/hGIPR
# Description: as §1
Binder,IC50 (human GIP receptor [1]) [µM],logIC50 (human GIP receptor [1]) [log M],IC50 (human GIP receptor [2]) [µM],log IC50 (human GIP receptor [2]) [log M],IC50 (human GIP receptor [3]) [µM],logIC50 (human GIP receptor [3]) [log M],Fold change HSA (2%)/Casein (0.1%) (human GIP receptor [4]) [fold]
B1,0.977,-6,5.94,-5.2,5.94,-5.2,0.2
B2,0.713,-6.1,0.0454,-7.3,0.045,-7.3,15.7
B3,0.555,-6.3,0.286,-6.5,0.286,-6.5,1.9
B4,10.1,-5,2.64,-5.6,2.64,-5.6,3.8
B5,0.401,-6.4,0.153,-6.8,0.153,-6.8,2.6
B6,3.28,-5.5,2.16,-5.7,2.16,-5.7,1.5
B7,12.4,-4.9,1.9,-5.7,1.9,-5.7,6.5
EGTFISDYSIAMDK(Myristoyl)IHQQDFVNWLLAQK-NH2 [AT111 [hGIP(3-30)NH2-C14/16]],2.09,-5.7,0.261,-6.6,0.407,-6.4,5.1
